From the supplement of paper PMC10126150
± gives the standard deviation of the averaged measurements.

tested on: ATP; assay: switch fluorescence ratio, 500 uM ATP over buffer (Cy3 cluster intensity, sum of 5 cycles each) (fold (ratio)); higher = stronger signal-on switching upon ATP binding; sequences stand for … in TCGTCGGCAGCGTCAGATGTGTATAAGAGACAGTTTTTTTTTTTTTTTTTTTTTTTTT…TC; conditions: aptamer strand: ATP DNA aptamer (quencher-CACCTGGGGGAGTATTGCGGAGGAAGG + anchor), 100 nM annealed; ATP concentration: 500 uM
How it was run: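 Exposure to 500 uM ATP lasted 15 min at 22 °C before imaging, and a selection-buffer image was taken beforehand, for Cy3-labelled switching-strand clusters on a modified Illumina MiSeq flow-cell annealed to 100 nM quencher-labelled ATP aptamer. Five buffer/ATP cycles were run with NaOH stripping and re-annealing between them. The fluorescence ratio per cluster is summed target-cycle over summed buffer-cycle Cy3 intensity, averaged per switch-domain sequence. Clusters outside 100-1000 RFU were excluded.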

Sequence	switch fluorescence ratio
ATGTTTTTGT	0.989 ± 0.042
TAGAATATAG	0.991 ± 0.0011
GGGGTGCCCA	0.984 ± 0.044
TGGGTGAGGA	1.04 ± 0.054
TGGTAAACGC	1.03 ± 0.05
CTAATTTCGT	0.992 ± 0.014
AGTAGTATAT	0.994 ± 0.03
GAGTCTAGGA	1.01 ± 0.039
GTTAGGAGAA	0.9807 ± 0.0092
TTTTGTGGTG	1.001 ± 0.007
GAGGGAGTAG	0.9962 ± 0.0012
AGAATTATCT	1 ± 0.024
AAAATAGGCT	0.993 ± 0.029
TTTTTTGT	0.982 ± 0.021
ATTAAGGGGG	0.9982 ± 0.0069
CTCGCTGGTA	1.003 ± 0.0081
GAATGGAGAA	0.992 ± 0.078
TTTCCGGGGT	1.28 ± 0.31
TAACATTTTT	1 ± 0.022
TTTTGGAGC	1.05 ± 0.068
GATCCAGCGG	1.02 ± 0.025
TGTGGAGAAG	0.974 ± 0.025
AGGACCGGGT	1.03 ± 0.021
TATAAAGTTG	1.01 ± 0.062
GATCTTGATG	1.02 ± 0.036

Sequence	switch fluorescence ratio
TACAGTTACC	1.31 ± 0.11
TTATGACTCA	1.01 ± 0.03
TTTACCGGTT	0.974 ± 0.07
TAACGGGGGG	0.999 ± 0.045
ACCGCTTCTG	1.04 ± 0.032
ATCACTGGTA	1.03 ± 0.017
GTTATTTTCG	0.987 ± 0.028
GTGAATAGTT	0.995 ± 0.032
TTTATCTTGT	0.9852 ± 0.0016
TAGTAAGAGG	1 ± 0.013
TGAGATTCAG	0.985 ± 0.02
AATCTTCTGT	0.982 ± 0.04
ACATGAGTGT	1.02 ± 0.024
AATTTCAAGG	1 ± 0.048
ATCTAGCAAC	1.36 ± 0.049
ATGTAGTCGG	0.978 ± 0.012
TCATAGAGG	0.9822 ± 0.0058
AAGCAGTCGA	1.09 ± 0.015
ATAGGGGGTC	0.988 ± 0.047
CGGGTTACGG	0.9728 ± 0.0055
TTCAGATAGA	0.9875 ± 0.0037
AAAGGATGG	0.997 ± 0.036
TCTTTTGGTT	1.011 ± 0.0051
CCGTCGTACG	1.06 ± 0.11
TAAAGTGCGG	1.03 ± 0.058

Sequence	switch fluorescence ratio
AGGTAAATTG	1.01 ± 0.015
ATTTAGGCAT	0.987 ± 0.042
AGGAGCGGTG	0.985 ± 0.047
GTGACAAAAA	1.027 ± 0.0026
CGGTTTCAGT	0.996 ± 0.023
CTGTTGGAAT	0.978 ± 0.025
ACTAAAAAGA	1.07 ± 0.056
GTGTGATGTG	0.9681 ± 0.0051
TTTTGCCCGA	0.988 ± 0.029
TTCGCATCTA	1.15 ± 0.056
TTGATTACTT	1 ± 0.04
TTGTTTGAGG	0.9815 ± 0.004
CGCGGGTTTT	1.0416 ± 0.00069
AAGGATAGTT	1.01 ± 0.013
AATTAGAAGC	0.9962 ± 0.0075
GATCATCGAT	1.02 ± 0.013
AGGGTATGTA	1 ± 0.015
CTTTAAGTCT	0.994 ± 0.039
AGAATCAGGC	1.04 ± 0.17
GGATATAAGT	1.01 ± 0.035
AGGCCAGGCG	1.02 ± 0.051
TATAGGTTTG	1.01 ± 0.042
AGAAGGATGG	0.983 ± 0.026
TAGCACTGAG	1.05 ± 0.043
GAACTAGGGG	1.05 ± 0.088

Sequence	switch fluorescence ratio
CCTGCGTAAG	2.29 ± 0.11
CCGGGGACCC	1.13 ± 0.08
ATATCTGAGT	1.03 ± 0.016
CGTTAGCAGA	1.19 ± 0.086
AACGGCTA	1.047 ± 0.0045
GGGGCAGCGT	0.999 ± 0.043
GAGTAAACTT	1.056 ± 0.0082
CGGCGGATTC	1.03 ± 0.019
CCAGGTCTAT	1.08 ± 0.018
CGCTGTGGAA	1.04 ± 0.044
ATCGGGAACT	1.02 ± 0.015
TGGTGAAACC	1.013 ± 0.0035
CCCATGCAAG	1.3 ± 0.32
TTTCATTGGG	1.01 ± 0.032
TTTCAGCGGG	1 ± 0.018
GATAGGACGC	1.05 ± 0.02
GCTTGTTCGG	1.04 ± 0.011
TGAATGCGCC	1.01 ± 0.025
GTTCCCGGGA	1.028 ± 0.0024
GGCTCAGCGG	1.03 ± 0.07
GAGTGCAGGA	1.01 ± 0.033
TCGAACTGGG	1.007 ± 0.0091
TGAAGGAGAA	0.929 ± 0.037
TTTATGATTA	1.035 ± 0.005
TAAGCGGGGC	1.0163 ± 0.00063

Sequence	switch fluorescence ratio
AACTGGAACT	1.03 ± 0.032
GATGCAAGAG	3.78 ± 0.7
ATGGTTGTTG	0.9628 ± 0.0034
CGTTTTGTGA	1 ± 0.0054
AATAGCAGGC	1.06 ± 0.028
GAATTTACCT	1.2 ± 0.039
GGTAACATCG	1.003 ± 0.0066
GGATTGCTCG	1.03 ± 0.029
TATGGCAACC	1.03 ± 0.061
AAATACTTGG	1.04 ± 0.055
TGGGTATCGT	0.977 ± 0.029
TTTAGCGGAT	1.02 ± 0.019
CCATGGTAGT	1.028 ± 0.0029
TGAGGAATTT	1 ± 0.029
ACCGGGTTTT	1.03 ± 0.02
ATATTTTTGT	1.03 ± 0.014
TAGGGTATTT	0.987 ± 0.023
TTGAGATGTT	1.01 ± 0.025
AATACATTCT	1.05 ± 0.011
GGGGATATGG	1.01 ± 0.039
CCGTTTTTGC	1.14 ± 0.09
TAGTGAGAGC	1 ± 0.058
GTGGGTCCTA	0.9891 ± 0.0013
TCGGGGTACG	1.01 ± 0.015
AAGCTATCGG	0.994 ± 0.016

Sequence	switch fluorescence ratio
ACAGTAGGGA	1.049 ± 0.0093
ACCCAAAAAG	1.05 ± 0.12
TGGGTGGATC	1.02 ± 0.056
GTTTTAGCGC	1 ± 0.049
CAATGGGCTC	1.016 ± 0.0084
CATATTTTTG	0.996 ± 0.013
AAGGTTACGT	1.022 ± 0.0072
ATTTCGGTGC	1.1 ± 0.17
CCCGATGCGC	1.42 ± 0.51
CGTTTAAATC	0.986 ± 0.013
GGCTTGCGTA	0.9512 ± 0.0029
TTGGCTAGTT	1 ± 0.029
GTTGGGGTGG	1.04 ± 0.12
ATAGTTTACT	1.01 ± 0.024
TGGTTGGATC	0.984 ± 0.019
AATAGTATAG	0.966 ± 0.02
CGGGGTCATT	0.979 ± 0.011
GAGTGAGGGA	1.03 ± 0.024
ATGCTTCGTG	0.975 ± 0.027
TGCTTTAAGT	0.9912 ± 0.0029
TATCTGGGCC	1.03 ± 0.011
CAGGTTTGGT	0.984 ± 0.021
TGAAAGTGTT	0.994 ± 0.012
GAGGGCGGAC	1.05 ± 0.19
GTGTTGAGGC	0.974 ± 0.05

Sequence	switch fluorescence ratio
CCTGGGTGGG	1.12 ± 0.065
ATGGGCGCAG	0.99 ± 0.05
GGGATTGGCT	1.01 ± 0.015
GCATAGAGCG	1.02 ± 0.065
CAACGGGTTA	0.998 ± 0.0077
ATGGATATTA	1.03 ± 0.046
GCCGCCACCT	1.07 ± 0.019
CTTGATACTC	1.18 ± 0.032
AGATCAGTGC	0.997 ± 0.011
GACACCACAG	1.162 ± 0.0035
TTCAGATTAC	1.04 ± 0.024
TGGGCAGGAT	1.01 ± 0.041
TAAAGTTTGC	0.995 ± 0.017
TTATCGGGGC	1 ± 0.025
TAAGGAGGTC	0.99 ± 0.031
TTAGGCGGGG	1 ± 0.061
GTCGAGGGAA	0.995 ± 0.022
AATTTACGAA	1.01 ± 0.019
CCCAATAGTG	1.35 ± 0.042
GTGGGCCGCG	0.979 ± 0.029
AGGGTGGGTT	0.9771 ± 0.005
TTTTCTAGTA	0.983 ± 0.038
GTGGTTCTGA	1.03 ± 0.024
GGGGTGTTTT	0.999 ± 0.048
TTACAGTTCG	1.013 ± 0.0082

Sequence	switch fluorescence ratio
GCGTCTTCAT	0.979 ± 0.011
TCGGGGCTAG	0.989 ± 0.025
ATCTGTAAGG	1.02 ± 0.043
GTTGGGTTGC	0.999 ± 0.018
ACGGGGACTG	1.0927 ± 0.00086
GAGGGTGGAA	1.04 ± 0.12
CTATAGATTT	0.973 ± 0.02
ATGACCTTCA	2.1 ± 0.078
TTGCACGGGT	1.01 ± 0.02
GGGTTGCCGT	0.977 ± 0.036
TGCCACTGGG	1.06 ± 0.019
TCTTTTGCCT	1.01 ± 0.034
TAGGGGAGTA	0.9792 ± 0.0068
GAGAGAACTT	1.03 ± 0.021
GGGTGCGGTT	1.011 ± 0.01
AAAAAGGGTT	1 ± 0.025
GGGGGTCGTT	1.02 ± 0.051
TTTTACACCT	1.23 ± 0.2
AGTTGTATGG	0.9738 ± 0.0049
TCTTAGAAC	1.009 ± 0.0062
GTTACTGTGG	0.9663 ± 0.005
GCCCACCACA	1.08 ± 0.028
TTGGGGGTGT	1.03 ± 0.1
ACCTTTTACG	1.15 ± 0.072
AGCTTAAGAC	1.36 ± 0.041
